# Assay results from patent EP2586797A2 (Medtronic, Inc., dated 2013).
# Key:
# [1] = molecular target: T1, Abeta42 beta amyloid peptide (UniProt P05067 672-713); assay: competition ELISA, purified antibody 0.003-16 ug/ml against biotinylated 6E10 (chimeric mouse 6E10) on coated beta amyloid, n=2
# T1 construct: domain: Abeta42 beta amyloid peptide; also called Aβ42; Aβ
# [2] = molecular target: T1, Abeta42 beta amyloid peptide; assay: competition ELISA, purified antibody against biotinylated 6E10 on coated beta amyloid; normalised to the row 'Mouse' (chimeric mouse 6E10); <1 improved
# [3] = molecular target: T1, Abeta42 beta amyloid peptide; assay: competition ELISA, NS0 supernatant titrated against 0.25 ug/ml biotinylated mouse 6E10 (mouse MDT-2007) on coated beta amyloid; IC50 normalised to mouse 6E10 (=1; <1 improved)
# [4] = molecular target: T1, Abeta42 beta amyloid peptide; assay: competition ELISA, purified antibody on coated beta amyloid (Table 4), against the mouse reference
# [5] = molecular target: T1, Abeta42 beta amyloid peptide; assay: competition ELISA, purified antibody against biotinylated 6E10 (chimeric mouse 6E10) on coated beta amyloid; the reference row itself
# T1 sequence (P05067 672-713 limits assumed): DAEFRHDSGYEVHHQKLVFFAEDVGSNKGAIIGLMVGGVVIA
Binder,IC50 [1] [µg/mL],Fold Difference (IC50 normalised to the reference) [2] [fold],fold difference in IC50 relative to mouse 6E10 [3] [fold],fold increase in binding compared to the mouse reference [4] [fold],Fold Difference (IC50 normalised to the reference) [5] [fold]
"Composite human antibody variant VH4/VK1 (antibody, human IgG1, V domains shown, Human IgG1/kappa (pANT15/pANT13), NS0 cells; also called VH4/YK1) VH: QVQLVQSGAEVKKPGASVKVSCTASGFNIKDTYIHWVRQARGQRLEWIGRFDPVNVNTRYDSRFRGRVTITSDASTNTAYMELSSLRSEDTAVYYCSRSYYNGRRRFTYWGQGTLVTVSS VL: DIVMTQSPDSLTVSLGERATINCKASQSLLSSGNQKNYLTWYQQKPGQPPKLLIYWASIRESGVPDRFTGSGSGTFFTLTISSLQAEDVAVYYCQNDYNYPFTFGQGTKLEIK",4.1,1.14,0.94,–,–
"Composite human antibody variant VH5/VK1 (antibody, human IgG1, V domains shown, Human IgG1/kappa (pANT15/pANT13), NS0 cells; also called VH5/YK1) VH: QVQLVQSGAEVKKPGASVKVSCTASGFNIKDTYIHWVRQARGQRLEWIGRFDPVNVNTRYDSRFRGRVTITSDASTSTAYMELSSLRSEDTAVYYCSRSYYNGRRRFTYWGQGTLVTVSS VL: DIVMTQSPDSLTVSLGERATINCKASQSLLSSGNQKNYLTWYQQKPGQPPKLLIYWASIRESGVPDRFTGSGSGTFFTLTISSLQAEDVAVYYCQNDYNYPFTFGQGTKLEIK",3.3,0.91,0.8,–,–
"Composite human antibody variant VH5/VK2 (antibody, human IgG1, V domains shown, Human IgG1/kappa (pANT15/pANT13), NS0 cells) VH: QVQLVQSGAEVKKPGASVKVSCTASGFNIKDTYIHWVRQARGQRLEWIGRFDPVNVNTRYDSRFRGRVTITSDASTSTAYMELSSLRSEDTAVYYCSRSYYNGRRRFTYWGQGTLVTVSS VL: DIVMTQSPSSLTASVGDRVTITCKASQSLLSSGNQKNYLTWYQQKPGQPPKLLIYWASIRESGVPDRFTGSGSGTFFTLTISSLQAEDVAVYYCQNDYNYPFTFGQGTKLEIK",2.6,0.72,0.72,–,–
"MDT-2007 (composite human antibody sequence variant VH4/VK2) (antibody, human IgG1, V domains shown, Human IgG1/kappa (pANT15/pANT13), NS0 cells) VH: QVQLVQSGAEVKKPGASVKVSCTASGFNIKDTYIHWVRQARGQRLEWIGRFDPVNVNTRYDSRFRGRVTITSDASTNTAYMELSSLRSEDTAVYYCSRSYYNGRRRFTYWGQGTLVTVSS VL: DIVMTQSPSSLTASVGDRVTITCKASQSLLSSGNQKNYLTWYQQKPGQPPKLLIYWASIRESGVPDRFTGSGSGTFFTLTISSLQAEDVAVYYCQNDYNYPFTFGQGTKLEIK",2.1,0.57,0.67,1.72,–
"mouse 6E10 anti-Aβ antibody (antibody, V domains shown, Murine monoclonal from hybridoma 6E10 (Covance); also called 6E10 mouse antibody) VH: EVQLQQSGAELVKPGASVKLSCTASGFNIKDTYIHWVKQRPEQGLEWIGRFDPVNVNTRYDSRFRGKATITSDASSNTAYLHLNSLTSEDTAVYYCSRSYYNGRRRFTYWGQGTLVTVSA VL: DIVMTQSPSSLTVTAGEKVALTCKASQSLLSSGNQKNYLTWYQQKPGQPPKLLIYWASIRESGVPDRFTGSGSGTFFTLTISSVQAEDLAVYYCQNDYNYPFTFGSGTKLEIK",3.6,–,–,–,1
